The results in this text go back to patent US20100184837A1.

Assay [1] addresses natural HCV acceptors on human liver cancer cells Huh 7.5.1. Kind of assay: flow cytometry, binding to Huh 7.5.1 cells (FIG. 6), control protein. (A flow cytometer gives signals particle by particle.)
The target is the same in assay [2]. As to the kind of experiment: flow cytometry, binding to Huh 7.5.1 cells (FIG. 6), with a single DNA aptamer present as competitor.
Assay [3] has the same target. As to the kind of experiment: flow cytometry, binding to Huh 7.5.1 cells (FIG. 6), no aptamer.
Assay [4] shares this target. Kind of assay: flow cytometry, binding to Huh 7.5.1 cells (FIG. 6), with the thirteenth-round DNA aptamer library present as competitor.

In assay [1], protein GST displayed a binding rate of 1%.

With GST-E2, the values for the binding rate in assay [2], in assay [3] and in assay [4] were 15.4%, 36.7% and 23.2%, respectively.
